According to article PMC3229523, “Identification of Lactoferricin B Intracellular Targets Using an Escherichia coli Proteome Chip” (PLoS ONE, 2011):
Ends that are not written are not given here. * marks the point of attachment. Biotin = O=C1N[C@H]2[C@H](CS[C@H]2CCCCC(=O)*)N1

How the values were obtained:
Test in all cases: peptide or protein array; E. coli proteome chip: purified His-tagged proteins printed in duplicate on Fullmoon slides, blocked with 1% BSA; 10 nM N-terminal biotinylated LfcinB with 1% BSA, room temperature, 1 h; detected with DyLight 649-labeled streptavidin, ratio to DyLight 549-labeled anti-His antibody; ProCAT normalisation, local cut-off; triplicate chips
Conditions in all cases: both partners purified
RplE = RplE (E. coli K-12, UniProt P62399 1-179)
GlyQ = biological target: T1, GlyQ (E. coli K-12, UniProt P00960 1-303)
T1 construct: GlyQ, E. coli K-12
T1 sequence (looked up): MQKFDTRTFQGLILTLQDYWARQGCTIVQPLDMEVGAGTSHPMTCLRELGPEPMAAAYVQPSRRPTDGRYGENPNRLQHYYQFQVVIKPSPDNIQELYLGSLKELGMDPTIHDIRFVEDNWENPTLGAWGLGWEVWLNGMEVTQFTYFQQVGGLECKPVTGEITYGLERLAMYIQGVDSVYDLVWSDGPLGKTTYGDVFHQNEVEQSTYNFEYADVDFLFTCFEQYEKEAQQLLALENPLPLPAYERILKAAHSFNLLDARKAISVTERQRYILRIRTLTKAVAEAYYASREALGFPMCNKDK

YbgE = biological target: T2, YbgE (E. coli K-12, UniProt P0AAV0 1-97)
T2 construct: YbgE, E. coli K-12
T2 sequence (looked up): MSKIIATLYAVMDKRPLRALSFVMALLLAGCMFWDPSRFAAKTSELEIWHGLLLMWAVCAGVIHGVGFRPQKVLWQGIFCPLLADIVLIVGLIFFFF

YhdG = biological target: T3, YhdG (E. coli K-12, UniProt P0ABT5 1-321)
T3 construct: YhdG, E. coli K-12
T3 sequence (looked up): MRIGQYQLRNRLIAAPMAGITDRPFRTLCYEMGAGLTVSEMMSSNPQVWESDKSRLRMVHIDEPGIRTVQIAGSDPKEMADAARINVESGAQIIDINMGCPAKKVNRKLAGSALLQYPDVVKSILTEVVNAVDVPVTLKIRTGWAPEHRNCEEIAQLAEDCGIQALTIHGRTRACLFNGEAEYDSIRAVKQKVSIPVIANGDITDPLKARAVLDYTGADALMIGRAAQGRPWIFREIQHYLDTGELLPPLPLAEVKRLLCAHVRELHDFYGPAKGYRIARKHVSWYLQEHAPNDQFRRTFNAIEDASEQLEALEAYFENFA

MetL = biological target: T4, MetL (E. coli K-12, UniProt P00562 1-810)
T4 construct: MetL, E. coli K-12
T4 sequence (looked up): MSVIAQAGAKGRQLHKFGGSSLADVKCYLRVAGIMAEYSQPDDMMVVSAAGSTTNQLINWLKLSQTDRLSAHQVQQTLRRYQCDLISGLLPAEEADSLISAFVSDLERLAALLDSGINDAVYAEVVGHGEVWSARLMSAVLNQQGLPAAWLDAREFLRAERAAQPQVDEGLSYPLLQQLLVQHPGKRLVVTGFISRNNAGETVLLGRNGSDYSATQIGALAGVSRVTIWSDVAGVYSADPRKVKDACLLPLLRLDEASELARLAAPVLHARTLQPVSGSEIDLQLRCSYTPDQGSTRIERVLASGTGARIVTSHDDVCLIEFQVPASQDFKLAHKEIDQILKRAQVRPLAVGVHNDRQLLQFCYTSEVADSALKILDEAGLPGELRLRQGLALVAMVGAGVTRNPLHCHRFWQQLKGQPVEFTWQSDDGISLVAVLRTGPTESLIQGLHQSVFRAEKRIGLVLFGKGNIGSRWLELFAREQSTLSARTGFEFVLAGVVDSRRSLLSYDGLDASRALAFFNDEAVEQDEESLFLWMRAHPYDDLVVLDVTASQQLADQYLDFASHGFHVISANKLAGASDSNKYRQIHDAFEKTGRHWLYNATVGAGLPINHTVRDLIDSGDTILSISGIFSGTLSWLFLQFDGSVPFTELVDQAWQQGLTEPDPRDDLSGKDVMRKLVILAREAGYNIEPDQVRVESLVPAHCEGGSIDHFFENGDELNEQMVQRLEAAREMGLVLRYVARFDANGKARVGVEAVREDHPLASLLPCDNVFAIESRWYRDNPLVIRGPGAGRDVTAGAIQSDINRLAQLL

AgaY = biological target: T5, AgaY (E. coli K-12, UniProt P0AB74 1-286)
T5 construct: AgaY, E. coli K-12
T5 sequence (P0AB74 whole entry): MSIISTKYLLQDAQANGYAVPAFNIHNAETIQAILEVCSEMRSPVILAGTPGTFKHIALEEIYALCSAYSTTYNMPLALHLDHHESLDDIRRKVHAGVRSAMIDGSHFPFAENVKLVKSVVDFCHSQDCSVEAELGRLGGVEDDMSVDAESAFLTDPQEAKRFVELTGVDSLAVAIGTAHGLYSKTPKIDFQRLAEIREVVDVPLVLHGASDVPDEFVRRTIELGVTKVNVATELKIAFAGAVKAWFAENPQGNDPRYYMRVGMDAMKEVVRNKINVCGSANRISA

Measured: binding result

B1: N-terminal biotinylated Lactoferricin B (peptide, UniProt P24627 36-60, looked up)
peptide: Biotin-FKCRRWQWRMKKLGAPSITCVRRAF
modifications: ends and bridges not checked
notes: lactoferricin B (LfcinB), cationic antimicrobial peptide of 25 amino acids; also called biotinylated LfcinB; biotin-labeled LfcinB; source: bought: Kelowna Inc
binds: RplE | GlyQ | YbgE | YhdG | MetL | AgaY
